Read-outs that look alike come from different tables or passages of the source.
Assays:
[1] = target: T1, human CD70 expressed on the surface of cells (human, UniProt P32970 1-193); assay: cell-based or functional assay
T1 sequence (looked up): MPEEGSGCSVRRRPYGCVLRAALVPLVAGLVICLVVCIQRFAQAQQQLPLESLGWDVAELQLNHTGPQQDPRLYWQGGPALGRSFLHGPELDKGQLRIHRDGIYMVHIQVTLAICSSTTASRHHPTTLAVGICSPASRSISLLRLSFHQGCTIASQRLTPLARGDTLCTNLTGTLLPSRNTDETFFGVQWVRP

[2] = target: T2, recombinant human CD70 (Flag-TNC-CD70) (human, UniProt P32970 39-193); assay: inhibition ELISA; Flag-TNC-CD70 captured by anti-Flag mAb; competitor CD27-Fc
T2 construct: extracellular domain; Captured by anti-Flag mAb in ELISA; as 'recombinant human CD70' immobilised on Biacore CM5 chips; TNC is for trimerisation; also called recombinant CD70; human recombinant CD70; not shown: Flag tag and TNC trimerisation domain
T2 sequence (looked up): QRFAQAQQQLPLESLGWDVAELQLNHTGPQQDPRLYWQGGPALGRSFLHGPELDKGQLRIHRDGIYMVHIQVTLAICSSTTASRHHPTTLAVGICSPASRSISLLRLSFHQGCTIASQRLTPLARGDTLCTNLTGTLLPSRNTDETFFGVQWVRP
Experimental: From selected phage transfected into TG1, individual colonies were picked randomly for growth in 96 well plates. After IPTG induction according to standard protocols periplasmic fractions (penis) containing Fabs were prepared. […] In this assay, Flag-TNC-CD70 is captured by an anti-Flag mAb and binding of CD27-Fc is detected via a biotinylated anti-CD27 mAb and strep-HRP in the absence or presence of CD70 Fabs (FIGS. 2 and 3) or CD70 mAbs (FIG. 4). In FIG. 2B it can be seen that 27B3, which has an identical VH as 9D1, but contains a somewhat different light chain, seems to block binding of CD27 to CD70 more efficiently, which was in line with the better off rate of this Fab as measured on Biacore (data not shown). Table 3 indicates the blocking potency (expressed as IC50) for the various llama-human chimeric mAbs tested in the CD70 inhibition ELISA. […] FIG. 3 is a composite of an experiment testing llama CD70 Fabs for blocking activity (in the inhibition ELISA, see white bars) and for CD70 binding (binding ELISA, black bars). For the binding ELISA, Flag-TNC-CD70 is captured by an anti-Flag mAb and binding of the Fabs is detected using an anti-myc-HRP mAb, which recognizes the MYC tag fused to the C-terminus of the Fd fragment. For comparison purposes, known monoclonal antibodies to CD70 (SGN70 described in US 2010/0129362 A1, clone 1F6; and MDX69A7 described in WO2008/074004 FIGS. 5A and 5B) were tested in parallel. […] Of interest is clone 59D10, which as Fab has no blocking activity, but when converted into a chimeric IgG was antagonistic (see Table 3). Amino acid sequences of the VH and VL domains of binding and blocking llama-derived Fab clones are shown elsewhere herein (Tables 6-9).

[3] = target: T1, human CD70 expressed on the surface of …; assay: cell-based or functional assay; remark: listed apart in the source
[4] = target: T1, human CD70 expressed on the surface of …; assay: flow cytometry on 786-O cells; anti-human Fc-FITC
Experimental: Fluorescence of 10,000 cells/condition was measured using a flow cytometer and the median fluorescence was plotted.

[5] = target: T2, recombinant human CD70 (Flag-TNC-CD70); assay: inhibition ELISA; Flag-TNC-CD70 captured by anti-Flag mAb; competitor CD27-Fc; remark: listed apart in the source
Summary of the method: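 Flag-TNC-CD70 captured by anti-Flag mAb, then incubated with CD27-Fc with or without titrated Fabs (periplasmic extracts) or chimeric mAbs. Bound CD27-Fc detected via biotinylated anti-CD27 mAb and strep-HRP, and blocking potency expressed as IC50.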

[6] = target: T1, human CD70 expressed on the surface of …; assay: cell-based or functional assay; remark: listed apart in the source
[7] = target: T3, rhesus recombinant CD70 (FLAG-TNC-rhesus CD70) (rhesus); assay: inhibition ELISA; FLAG-TNC-rhesus CD70; competitor CD27-Fc
T3 construct: also called rhesus Flag-TNC-CD70
Description: In this assay, Flag-TNC-CD70 is captured by an anti-Flag mAb and binding of CD27-Fc is detected via a biotinylated anti-CD27 mAb and strep-HRP in the absence or presence of CD70 Fabs (FIGS. 2 and 3) or CD70 mAbs (FIG. 4). In FIG. 2B it can be seen that 27B3, which has an identical VH as 9D1, but contains a somewhat different light chain, seems to block binding of CD27 to CD70 more efficiently, which was in line with the better off rate of this Fab as measured on Biacore (data not shown). Table 3 indicates the blocking potency (expressed as IC50) for the various llama-human chimeric mAbs tested in the CD70 inhibition ELISA. […] FIG. 3 is a composite of an experiment testing llama CD70 Fabs for blocking activity (in the inhibition ELISA, see white bars) and for CD70 binding (binding ELISA, black bars). For the binding ELISA, Flag-TNC-CD70 is captured by an anti-Flag mAb and binding of the Fabs is detected using an anti-myc-HRP mAb, which recognizes the MYC tag fused to the C-terminus of the Fd fragment. For comparison purposes, known monoclonal antibodies to CD70 (SGN70 described in US 2010/0129362 A1, clone 1F6; and MDX69A7 described in WO2008/074004 FIGS. 5A and 5B) were tested in parallel. […] Of interest is clone 59D10, which as Fab has no blocking activity, but when converted into a chimeric IgG was antagonistic (see Table 3). […]

B1: 27B3 chimeric llama-human mAb (antibody, human IgG1, V domains shown)
VH: EVQLVESGGGLVQPGGSLRLSCAASGFTFSVYYMNWVRQAPGKGLEWVSDINNEGGTTYYADSVKGRFTISRDNAKNTLTLQMNSLKPEDTALYYCVRDAGYSNHVPIFDSWGQGTQVIVAS
VL: QAVVTQEPSLTVSPGGTVTLTCGLKSGSVTSTNFPTWYQQTPGQAPRLLIYNTNTRHSGVPSRFSGSISENKAALTITGAQPEDEAEYFCALFISNPSVEFGGGTQLTVLS
notes: also called SIMPLE antibody 27B3; mAb 27B3
Question: B1 was tested. Which “IC50, IL-8 secretion in Raji / HT1080-CD27 co-culture assay” value [1] did it give?
Answer: The value was 0.033 nM.

Question: And the IC50 [2]?
Answer: The IC50 was 0.25 nM.

Question: What about the “Raji co-culture assay IC50 relative to 27B3” value [3] of the same binder?
Answer: Its value is 1 fold of 27B3.

Question: And the EC50 [4]?
Answer: The EC50 was 0.24 nM.

Question: What about the IC50 [5] of the same binder?
Answer: Its IC50 is 0.038 µg/mL.

Question: What about the “IC50 (ng/ml), IL-8 secretion in Raji / HT1080-CD27 co-culture assay” value [6] of the same binder?
Answer: The value was 5 ng/mL.

Question: What about the IC50 [7] of the same binder?
Answer: The IC50 was 0.15 µg/mL.

Source: US20150266963A1 (ARGEN X B V, published 2015)
